Like-named read-outs stand apart in the source and are kept apart here.
How the values were obtained:
Test in all cases: native gel or EMSA
[1] = molecular target: native rabbit IFIT1B (native rIFIT1B) (rabbit (endogenous in rabbit reticulocyte lysate))
[2] = molecular target: rabbit IFIT1B (rIFIT1B), recombinant (rabbit)
native gel or EMSA [3] = molecular target: the molecule itself
native gel or EMSA [4] = molecular target: the molecule itself; remark: listed apart in the source

Molecule	binding result (native gel or EMSA [3])	further results
native rabbit IFIT1B (native rIFIT1B) (natural protein)		stoichiometry N [1]: 2
rabbit IFIT1B (rIFIT1B), recombinant (natural protein)		stoichiometry N [2]: 2
human IFIT2 (hIFIT2), recombinant (natural protein, UniProt P09913 1-472, looked up) MSENNKNSLESSLRQLKCHFTWNLMEGENSLDDFEDKVFYRTEFQNREFKATMCNLLAYLKHLKGQNEAALECLRKAEELIQQEHADQAEIRSLVTWGNYAWVYYHMGRLSDVQIYVDKVKHVCEKFSSPYRIESPELDCEEGWTRLKCGGNQNERAKVCFEKALEKKPKNPEFTSGLAIASYRLDNWPPSQNAIDPLRQAIRLNPDNQYLKVLLALKLHKMREEGEEEGEGEKLVEEALEKAPGVTDVLRSAAKFYRRKDEPDKAIELLKKALEYIPNNAYLHCQIGCCYRAKVFQVMNLRENGMYGKRKLLELIGHAVAHLKKADEANDNLFRVCSILASLHALADQYEDAEYYFQKEFSKELTPVAKQLLHLRYGNFQLYQMKCEDKAIHHFIEGVKINQKSREKEKMKDKLQKIAKMRLSKNGADSEALHVLAFLQELNEKMQQADEDSERGLESGSLIPSASSWNGE		stoichiometry N (native gel or EMSA [3]): 2
human IFIT1 (hIFIT1), recombinant wild type (natural protein, UniProt P09914 1-478, looked up) MSTNGDDHQVKDSLEQLRCHFTWELSIDDDEMPDLENRVLDQIEFLDTKYSVGIHNLLAYVKHLKGQNEEALKSLKEAENLMQEEHDNQANVRSLVTWGNFAWMYYHMGRLAEAQTYLDKVENICKKLSNPFRYRMECPEIDCEEGWALLKCGGKNYERAKACFEKVLEVDPENPESSAGYAISAYRLDGFKLATKNHKPFSLLPLRQAVRLNPDNGYIKVLLALKLQDEGQEAEGEKYIEEALANMSSQTYVFRYAAKFYRRKGSVDKALELLKKALQETPTSVLLHHQIGLCYKAQMIQIKEATKGQPRGQNREKLDKMIRSAIFHFESAVEKKPTFEVAHLDLARMYIEAGNHRKAEENFQKLLCMKPVVEETMQDIHFHYGRFQEFQKKSDVNAIIHYLKAIKIEQASLTRDKSINSLKKLVLRKLRRKALDLESLSLLGFVYKLEGNMNEALEYYERALRLAADFENSVRQGP		binding result (native gel or EMSA [4]): binds
hIFIT1 F45A (natural protein, human, UniProt P09914 1-478, looked up) MSTNGDDHQVKDSLEQLRCHFTWELSIDDDEMPDLENRVLDQIEALDTKYSVGIHNLLAYVKHLKGQNEEALKSLKEAENLMQEEHDNQANVRSLVTWGNFAWMYYHMGRLAEAQTYLDKVENICKKLSNPFRYRMECPEIDCEEGWALLKCGGKNYERAKACFEKVLEVDPENPESSAGYAISAYRLDGFKLATKNHKPFSLLPLRQAVRLNPDNGYIKVLLALKLQDEGQEAEGEKYIEEALANMSSQTYVFRYAAKFYRRKGSVDKALELLKKALQETPTSVLLHHQIGLCYKAQMIQIKEATKGQPRGQNREKLDKMIRSAIFHFESAVEKKPTFEVAHLDLARMYIEAGNHRKAEENFQKLLCMKPVVEETMQDIHFHYGRFQEFQKKSDVNAIIHYLKAIKIEQASLTRDKSINSLKKLVLRKLRRKALDLESLSLLGFVYKLEGNMNEALEYYERALRLAADFENSVRQGP	binds	
hIFIT1 F45A/Y50A (natural protein, human, UniProt P09914 1-478, looked up) MSTNGDDHQVKDSLEQLRCHFTWELSIDDDEMPDLENRVLDQIEALDTKASVGIHNLLAYVKHLKGQNEEALKSLKEAENLMQEEHDNQANVRSLVTWGNFAWMYYHMGRLAEAQTYLDKVENICKKLSNPFRYRMECPEIDCEEGWALLKCGGKNYERAKACFEKVLEVDPENPESSAGYAISAYRLDGFKLATKNHKPFSLLPLRQAVRLNPDNGYIKVLLALKLQDEGQEAEGEKYIEEALANMSSQTYVFRYAAKFYRRKGSVDKALELLKKALQETPTSVLLHHQIGLCYKAQMIQIKEATKGQPRGQNREKLDKMIRSAIFHFESAVEKKPTFEVAHLDLARMYIEAGNHRKAEENFQKLLCMKPVVEETMQDIHFHYGRFQEFQKKSDVNAIIHYLKAIKIEQASLTRDKSINSLKKLVLRKLRRKALDLESLSLLGFVYKLEGNMNEALEYYERALRLAADFENSVRQGP	binds	
hIFIT1 Y50A (natural protein, human, UniProt P09914 1-478, looked up) MSTNGDDHQVKDSLEQLRCHFTWELSIDDDEMPDLENRVLDQIEFLDTKASVGIHNLLAYVKHLKGQNEEALKSLKEAENLMQEEHDNQANVRSLVTWGNFAWMYYHMGRLAEAQTYLDKVENICKKLSNPFRYRMECPEIDCEEGWALLKCGGKNYERAKACFEKVLEVDPENPESSAGYAISAYRLDGFKLATKNHKPFSLLPLRQAVRLNPDNGYIKVLLALKLQDEGQEAEGEKYIEEALANMSSQTYVFRYAAKFYRRKGSVDKALELLKKALQETPTSVLLHHQIGLCYKAQMIQIKEATKGQPRGQNREKLDKMIRSAIFHFESAVEKKPTFEVAHLDLARMYIEAGNHRKAEENFQKLLCMKPVVEETMQDIHFHYGRFQEFQKKSDVNAIIHYLKAIKIEQASLTRDKSINSLKKLVLRKLRRKALDLESLSLLGFVYKLEGNMNEALEYYERALRLAADFENSVRQGP	binds	
hIFIT1 W147L (natural protein, human, UniProt P09914 1-478, looked up) MSTNGDDHQVKDSLEQLRCHFTWELSIDDDEMPDLENRVLDQIEFLDTKYSVGIHNLLAYVKHLKGQNEEALKSLKEAENLMQEEHDNQANVRSLVTWGNFAWMYYHMGRLAEAQTYLDKVENICKKLSNPFRYRMECPEIDCEEGLALLKCGGKNYERAKACFEKVLEVDPENPESSAGYAISAYRLDGFKLATKNHKPFSLLPLRQAVRLNPDNGYIKVLLALKLQDEGQEAEGEKYIEEALANMSSQTYVFRYAAKFYRRKGSVDKALELLKKALQETPTSVLLHHQIGLCYKAQMIQIKEATKGQPRGQNREKLDKMIRSAIFHFESAVEKKPTFEVAHLDLARMYIEAGNHRKAEENFQKLLCMKPVVEETMQDIHFHYGRFQEFQKKSDVNAIIHYLKAIKIEQASLTRDKSINSLKKLVLRKLRRKALDLESLSLLGFVYKLEGNMNEALEYYERALRLAADFENSVRQGP	binds	
hIFIT1 Y218A (natural protein, human, UniProt P09914 1-478, looked up) MSTNGDDHQVKDSLEQLRCHFTWELSIDDDEMPDLENRVLDQIEFLDTKYSVGIHNLLAYVKHLKGQNEEALKSLKEAENLMQEEHDNQANVRSLVTWGNFAWMYYHMGRLAEAQTYLDKVENICKKLSNPFRYRMECPEIDCEEGWALLKCGGKNYERAKACFEKVLEVDPENPESSAGYAISAYRLDGFKLATKNHKPFSLLPLRQAVRLNPDNGAIKVLLALKLQDEGQEAEGEKYIEEALANMSSQTYVFRYAAKFYRRKGSVDKALELLKKALQETPTSVLLHHQIGLCYKAQMIQIKEATKGQPRGQNREKLDKMIRSAIFHFESAVEKKPTFEVAHLDLARMYIEAGNHRKAEENFQKLLCMKPVVEETMQDIHFHYGRFQEFQKKSDVNAIIHYLKAIKIEQASLTRDKSINSLKKLVLRKLRRKALDLESLSLLGFVYKLEGNMNEALEYYERALRLAADFENSVRQGP	binds	
human IFIT3 (hIFIT3), recombinant (natural protein, UniProt O14879 1-490, looked up) MSEVTKNSLEKILPQLKCHFTWNLFKEDSVSRDLEDRVCNQIEFLNTEFKATMYNLLAYIKHLDGNNEAALECLRQAEELIQQEHADQAEIRSLVTWGNYAWVYYHLGRLSDAQIYVDKVKQTCKKFSNPYSIEYSELDCEEGWTQLKCGRNERAKVCFEKALEEKPNNPEFSSGLAIAMYHLDNHPEKQFSTDVLKQAIELSPDNQYVKVLLGLKLQKMNKEAEGEQFVEEALEKSPCQTDVLRSAAKFYRRKGDLDKAIELFQRVLESTPNNGYLYHQIGCCYKAKVRQMQNTGESEASGNKEMIEALKQYAMDYSNKALEKGLNPLNAYSDLAEFLETECYQTPFNKEVPDAEKQQSHQRYCNLQKYNGKSEDTAVQHGLEGLSISKKSTDKEEIKDQPQNVSENLLPQNAPNYWYLQGLIHKQNGDLLQAAKCYEKELGRLLRDAPSGIGSIFLSASELEDGSEEMGQGAVSSSPRELLSNSEQLN	binds	

— PMC3950709 (Nucleic Acids Research, 2013)
